Read-outs that look alike come from different tables or passages of the source. Where no end group is shown, it is not given here.

In assay [1] the target is Immunoglobulin G.
The next assay addresses IgG. Description: Binding of peptide IgG binder (directing group) to IgG. The following applies: Kd of the directing group included in the peptide IgG binder.
Assay [2] concerns the target Immunoglobulin G. This is another data set of the same source.

The Kd is a measure of binding affinity in units of concentration. The low end stands for a tighter complex, the high end for a looser complex. With “cyclic peptide IgG binder (DCAWXLGELVWCT peptide)”, the dissociation constant (Kd) with Immunoglobulin G [1] came to 15 nM. As to “GSYWYDVWF peptide [linear peptide IgG binder]”, at IgG, the Kd is 600 nM. For “DCAWXLGELVWCT peptide [cyclic peptide IgG binder]”, at IgG, the Kd worked out at 15 nM. In the assay with Immunoglobulin G [2], GSYWYDVWF (not fully specified) [linear peptide IgG binder (… peptide)] had a Kd of 600 nM.

For the origin of these results see patent US20240252674A1, “AGENTS FOR DIRECTED CONJUGATION TECHNIQUES AND CONJUGATED PRODUCTS” (Biohaven Therapeutics Ltd., priority 2021, published 2024).
